For test [1], the target named is Gp120 (HIV). The test is described as follows: indirect ELISA; indirect ELISA. (ELISA stands for enzyme-linked immunosorbent assay.)
Test [2] addresses Gp120 (HIV). The test is described as follows: ELISA.
Test [3] concerns the target Gp120 (HIV). Kind of test: direct ELISA; direct ELISA.

Residue numbers refer to the chain shown, from its start. In names and notes the source's numbering stands.

B1: Q 20K (other)
chain: MSLTHRKFGGSGGSPFSGLSSIAVRSGSYLDAIIIDGVHHGGSGGNLSPTFTFGSGEYISNMTIRSGDYIDNISFETNQGRRFGPYGGSGGSANTLSNVKVIQINGSAGDYLDSLDIYYEQY
modifications: 20,000 MW PEG coupled by NHS ester to a primary amine. The candidate sites are Lys pos 7 and Lys pos 100, both written K. At least one PEG per dimer. The exact site and number of PEGs are not determined.
With B1, the EC50 in the test with Gp120 [1] came out at 16.3 ng/mL; with Gp120 [2] it was 33.6 ng/mL.

B2: Q 20K Direct (other)
chain: B1 chain
modifications: 20,000 MW PEG coupled by NHS ester to a primary amine. The candidate sites are Lys pos 7 and Lys pos 100, both written K. At least one PEG per dimer. The exact site and number of PEGs are not determined.
B2 showed an EC50 with Gp120 [3] of 0.0355 ng/mL.

B3: Q (other)
chain: B1 chain
B3 returned an EC50 with Gp120 [2] of 8.38 ng/mL.

B4: M78K20K Rx (other)
chain: B1 chain with K7R, Q79K, K100R
modifications: chain 1 pos 79: Lys carrying 20,000 MW PEG by NHS-ester amine coupling, written K. It is the only lysine in the chain. At least one PEG per dimer. The exact site and occupancy were not measured.
In the test with Gp120 [3], B4 showed an EC50 of 0.0624 ng/mL.

B5: M78K 20K (other)
chain: B1 chain with K7R, Q79K, K100R
modifications: chain 1 pos 79: Lys carrying 20,000 MW PEG by NHS-ester amine coupling, written K. It is the only lysine in the chain. At least one PEG per dimer. The exact site and occupancy were not measured.
Consider B5, for which the EC50 in the test with Gp120 [1] is 19.2 ng/mL; in the test with Gp120 [2], 304 ng/mL.

B6: M78K 2K (other)
chain: B1 chain with K7R, Q79K, K100R
modifications: chain 1 pos 79: Lys carrying 2,000 MW PEG by NHS-ester amine coupling, written K. It is the only lysine in the chain. At least one PEG per dimer. The exact site and occupancy were not measured.
For B6, the EC50 with Gp120 [1] is 10.9 ng/mL; with Gp120 [2] it was 33.8 ng/mL.

B7: M78K (other)
chain: B1 chain with K7R, Q79K, K100R
In the test with Gp120 [2], B7 yielded an EC50 of 11.1 ng/mL.

B8: M78K2K Rx Direct (other)
chain: B1 chain with K7R, Q79K, K100R
modifications: chain 1 pos 79: Lys carrying 2,000 MW PEG by NHS-ester amine coupling, written K. It is the only lysine in the chain. At least one PEG per dimer. The exact site and occupancy were not measured.
Consider B8, for which a half-maximal response in the test with Gp120 [3] (EC50) required 0.332 ng/mL.

B9: NK 20K Direct (other)
chain: MKSLTHRRFGGSGGSPFSGLSSIAVRSGSYLDAIIIDGVHHGGSGGNLSPTFTFGSGEYISNMTIRSGDYIDNISFETNQGRRFGPYGGSGGSANTLSNVRVIQINGSAGDYLDSLDIYYEQY
modifications: 20,000 MW PEG coupled by NHS ester to a primary amine. The intended site is the added N-terminal Lys, pos 2, written K; the N-terminal amine is also possible. At least one PEG per dimer. The exact site and number of PEGs are not determined.
As to B9, a half-maximal response with Gp120 [3] (EC50) required 0.0173 ng/mL.

B10: NK (other)
chain: B9 chain
In the test with Gp120 [2], B10 registered an EC50 of 15 ng/mL.

B11: NK 2K (other)
chain: B9 chain
modifications: 2,000 MW PEG coupled by NHS ester to a primary amine. The intended site is the added N-terminal Lys, pos 2, written K; the N-terminal amine is also possible. At least one PEG per dimer. The exact site and number of PEGs are not determined.
As for B11, the figures for the concentration giving a half-maximal response (EC50) with Gp120 [1] and in the test with Gp120 [2] were 7.45 ng/mL and 60.8 ng/mL, respectively.

B12: NK 20K (other)
chain: B9 chain
modifications: 20,000 MW PEG coupled by NHS ester to a primary amine. The intended site is the added N-terminal Lys, pos 2, written K; the N-terminal amine is also possible. At least one PEG per dimer. The exact site and number of PEGs are not determined.
The molecule B12 yielded an EC50 with Gp120 [1] of 26.4 ng/mL.

B13: NK 2K Direct (other)
chain: B9 chain
modifications: 2,000 MW PEG coupled by NHS ester to a primary amine. The intended site is the added N-terminal Lys, pos 2, written K; the N-terminal amine is also possible. At least one PEG per dimer. The exact site and number of PEGs are not determined.
On to B13, for which the response in the test with Gp120 [3] was half-maximal at 0.0875 ng/mL (EC50).

B14: CK 20K (other)
chain: MSLTHRRFGGSGGSPFSGLSSIAVRSGSYLDAIIIDGVHHGGSGGNLSPTFTFGSGEYISNMTIRSGDYIDNISFETNQGRRFGPYGGSGGSANTLSNVRVIQINGSAGDYLDSLDIYYEQYK
modifications: 20,000 MW PEG coupled by NHS ester to a primary amine. The intended site is the added C-terminal Lys, pos 123, written K. At least one PEG per dimer. The exact site and number of PEGs are not determined.
In the case of B14, the EC50 in the test with Gp120 [1] came out at 14.1 ng/mL; with Gp120 [2] it was 90.5 ng/mL.

B15: CK 20K Direct (other)
chain: B14 chain
modifications: 20,000 MW PEG coupled by NHS ester to a primary amine. The intended site is the added C-terminal Lys, pos 123, written K. At least one PEG per dimer. The exact site and number of PEGs are not determined.
B15 yielded an EC50 in the test with Gp120 [3] of 0.029 ng/mL.

B16: CK (other)
chain: B14 chain
In the test with Gp120 [2], B16 came in with an EC50 of 10.5 ng/mL.

By EC50 is commonly meant the concentration at which the effect is half-maximal. Read a low EC50 as greater potency.
